The results in this text go back to the supplement of paper PMC10724198.

± gives the standard deviation of the averaged measurements.
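Further: PSI is a weighted mean of sequencing reads over stability bins, variants kept only with over 10 reads, mCherry proximal and sfGFP distal, peptide attached via GGGS linker.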

The subject of this series is Saccharomyces cerevisiae. The series can be described thus: protein stability index of tFT-peptide fusion (C-terminal peptide) (PSI (0-1 scale)); higher = more stable (slower turnover). The conditions noted are these: genetic background: wild type; temperature: 30 C.
LYPVPLSPPPAD yielded a protein stability index of 0.676 ± 0.026.
For LYVFFRFPSCLS, the protein stability index worked out at 0.555 ± 0.018.
Next, MAINAGYYKWRH: 0.767 ± 0.053.
Next, MALAVRVVNCGA: 0.591 ± 0.0087.
Next, MATLRVPTLSPD: 0.5743 ± 0.004; MAWTGIDAEVCV: 0.67 ± 0.028.
Consider MCGENVSWSCRS, for which the protein stability index worked out at 0.685 ± 0.038.
Then MEDSRSDSSGSP, with 0.6534 ± 0.00074.
Then MESIIHPNSGIV, with 0.744 ± 0.13.
Next, MFGCGSRGSGVV: 0.695 ± 0.093; MFLPNPTLLTLN: 0.559 ± 0.022; MGGLFGWLVFWI: 0.653 ± 0.27.
In turn, MGGMGRGGRREI registered a protein stability index of 0.692 ± 0.022.
Next, MGKEELDKKDEG: 0.625 ± 0.032.
Then MGYYDGIRYKEV, with 0.735 ± 0.092; and MILNLLLFRSKK, with 0.67 ± 0.05.
Next, MKPPIGGNKPGL: 0.726 ± 0.017; MKRRSEGDLLQP: 0.64 ± 0.047.
MKSSPFRASLDT returned a protein stability index of 0.676 ± 0.094.
MNLAGRRAVEEW registered a protein stability index of 0.659 ± 0.024.
Next, MNPRLTNKNNSS: 0.765 ± 0.058; MNPSADYSIGAR: 0.688 ± 0.062; MNVHGHERLRPS: 0.678 ± 0.066.
MPARGLAWLPVS came in with a protein stability index of 0.654 ± 0.064.
Next, MPPRNAENRSLP: 0.6793 ± 0.003.
Next, MPRSGRLSSRKE: 0.718 ± 0.023; MPVWGGSASRAL: 0.713 ± 0.066.
Next, MRAIRPGHSDLV: 0.629 ± 0.043; MRRAQADRVYRL: 0.7097 ± 0.0024.
As to MRRNGRNILGVA, the protein stability index came to 0.729 ± 0.054.
In the case of MRVKRVEVVRGG, the protein stability index is 0.6903 ± 0.0061.
Then MRWVISEDPGFR, with 0.695 ± 0.018.
Then MSGPHGGVADRD, with 0.676 ± 0.054; and MSKSLQTSSHKT, with 0.663 ± 0.018; and MTEFSESEGFIF, with 0.735 ± 0.064.
Next, MTMGNWLRLKRR: 0.62 ± 0.024.
In turn, MTSCAVDHPERR had a protein stability index of 0.703 ± 0.0047.
Next, MTWQSASGNRVA: 0.699 ± 0.056; MVISTRARCMFF: 0.6727 ± 0.0059; MVSMFRLFLGLV: 0.589 ± 0.016.
Then MVWCVSRGEGPV, with 0.762 ± 0.037.
Next, MVYLSSQYSATT: 0.661 ± 0.039.
As to MWVRKPNGNGSF, the protein stability index was 0.6877 ± 0.0055.
Next, MYLLSFRALGSS: 0.54 ± 0.0098; MYTCMSSNPLAC: 0.66 ± 0.039.
Then NAKQVYVSVMTR, with 0.5 ± 0.063.
Next, NCAPVPLSPADS: 0.685 ± 0.032; NEGYLIQGVSMG: 0.706 ± 0.0084; NELRREVLEEDL: 0.657 ± 0.0085.
Turning to NFFGPAIFLRRR, the protein stability index amounted to 0.678 ± 0.022.
As for NFVLACYSYNYW, the protein stability index worked out at 0.523 ± 0.011.
Next, NGREHHLESSYN: 0.654 ± 0.038; NGSGVSEDRDEK: 0.6298 ± 0.0034.
Next, NGTLQKGGLRRQ: 0.6547 ± 0.00088.
Turning to NGVLGYAVLEGE, the protein stability index stood at 0.705 ± 0.044.
NHHETRNDCSST had a protein stability index of 0.771 ± 0.12.
Then NHQKFILAACGT, with 0.68 ± 0.029; and NIKLKVCKEEMR, with 0.5706 ± 0.0012.
Next, NIKNQEVKTHDT: 0.6796 ± 0.0054.
Consider NIKPEDRNSTNA, for which the protein stability index was 0.633 ± 0.087.
Next, NIRETVILRIMQ: 0.606 ± 0.048; NIYDFQPPVSGH: 0.77 ± 0.052; NKARVDCNRSRC: 0.781 ± 0.2.
Next, NKDEVHRRRGRI: 0.718 ± 0.017; NKDKNDDRKLLG: 0.723 ± 0.12; NKDQKTKKNKRK: 0.661 ± 0.075.
Next, NKFETCIANMYI: 0.718 ± 0.058; NKHVMELPGEPG: 0.647 ± 0.0079; NKIDAGTPEKHR: 0.626 ± 0.041.
For the sequence NKIKKTQKKKLG, the protein stability index came out at 0.766 ± 0.1.
Then NKKDCFRNRKWE, with 0.593 ± 0.03; and NKKKKHKNSKNN, with 0.704 ± 0.055; and NKKKKKKSTKRN, with 0.691 ± 0.044.
In the case of NKKKKQRGKKQK, the protein stability index was 0.725 ± 0.045.
Next, NKKKKQRINIRG: 0.749 ± 0.068; NKRKNVFESTNA: 0.678 ± 0.019; NLCRFHFRNRFS: 0.565 ± 0.011.
Then NLDFGYAERWQG, with 0.768 ± 0.06; and NLHLVRNEELVL, with 0.6743 ± 0.0036.
Then NLITKWTCMRLF, with 0.511 ± 0.014.
NLRRPLYYNGSV returned a protein stability index of 0.757 ± 0.076.
Then NNNKKKDDNIDM, with 0.618 ± 0.079; and NPMSLTTKRKTE, with 0.651 ± 0.11; and NPQRGLNAQLFG, with 0.656 ± 0.045.
Next, NPQTVNSPIFPT: 0.752 ± 0.018; NPTDIAINTGIS: 0.742 ± 0.0081; NQAQTQQMKTEW: 0.608 ± 0.05.
In turn, NQAWYFVRLAGD showed a protein stability index of 0.776 ± 0.022.
NQCRSQVRQNGY came in with a protein stability index of 0.762 ± 0.15.
Sequence NQEPRVSFCRDS registered a protein stability index of 0.716 ± 0.044.
With NQRCLRGKIVRC, the protein stability index came out at 0.633 ± 0.03.
For NRDSRTLGSTVG, the protein stability index came to 0.6744 ± 0.0011.
Next, NRGPPNMRQITP: 0.712 ± 0.085; NRKGNKHEKKYE: 0.691 ± 0.0039.
NRNIRKKKIKNK: the protein stability index amounted to 0.668 ± 0.054.
Next, NRRERQQREVYN: 0.741 ± 0.21; NRRGGTLLATLF: 0.659 ± 0.017.
Then NRSERIKDNRGK, with 0.723 ± 0.025; and NRSFIITRSVLS, with 0.683 ± 0.029.
In turn, NSALQELNKAVG registered a protein stability index of 0.625 ± 0.029.
With NSESVRLGLGNE, the protein stability index amounted to 0.705 ± 0.054.
For the sequence NSGSQSQDKQER, the protein stability index was 0.658 ± 0.013.
Next, NSPKTKKTNFKE: 0.665 ± 0.017; NSRCSIQGAPLL: 0.726 ± 0.041; NSSPRFPTPDNP: 0.6618 ± 0.00081.
Then NSVLRESSGLQL, with 0.689 ± 0.044; and NSVWPGYPCTHP, with 0.639 ± 0.03.
Next, NTGEHVVPCKGT: 0.659 ± 0.0067; NTGGVTRVIGCV: 0.704 ± 0.029.
NTGNGYDEKTME displayed a protein stability index of 0.7622 ± 0.0014.
Next, NTHPPPLPTTKH: 0.7393 ± 0.007.
Then NTNEKKRQRKKK, with 0.6389 ± 0.0037.
Then NTSKEDENKARI, with 0.707 ± 0.019; and NVIGSGLFVGWD, with 0.795 ± 0.087.
NVLIISEQNHEP: the protein stability index was 0.748 ± 0.047.
In turn, NVYRYSWYCSEF displayed a protein stability index of 0.728 ± 0.088.
